This assay addresses FabL9, soluble purified Fab. The assay can be described thus: ELISA. Background: In an ELISA, binding on a coated surface is turned into a signal by an enzyme label.

This note sets out measurements from paper PMC5145273.

Broadly, the IC50 is the concentration that gives 50% inhibition. Higher therefore signals lower potency. In turn, “GluA4_(flip) ligand-binding domain (LBD), rat (domain or fragment)” registered a 50% inhibitory concentration (IC50) of 260 nM.
